Among the data in publication PMC8136665 are Kd and stoichiometry N values, retold here.

As usually defined, the Kd is the free concentration of one partner at which half of the binding sites on the other are occupied at equilibrium, for simple one-to-one binding. As a reminder, the stoichiometry N is a count of units in the complex or per binding partner.

Several values for one entry are separate records, joined by “and”; a condition that tells them apart may be missing. Identical values can stand only once.

Assay [1] has as its target SARS-CoV-2 spike (S) glycoprotein ectodomain, prefusion-stabilised trimer (SARS-CoV-2) (UniProt P0DTC2). As to the kind of experiment: SPR.
The target is the same in assay [2]. As to the kind of experiment: negative-stain electron microscopy.

Take “MGL (Macrophage galactose lectin) extracellular domain (domain or fragment)”: the Kd in assay [1] stood at 7 µM. In other words, the single-digit micromolar range.
On the same count and under the same terms, the figure for “L-SIGN extracellular domain (liver/lymph node-specific intracellular adhesion molecules-3 grabbing non-integrin) (from UniProt Q9H2X3 78-399) (domain or fragment)” is 1.8 µM and 1.66 µM.
As to “DC-SIGN extracellular domain (Dendritic Cell-Specific Intercellular adhesion molecule-3-Grabbing Non-integrin) (from UniProt Q9NNX6 66-404) (domain or fragment)”, in assay [2], the stoichiometry N is 1 and > 2. In addition, in assay [1], the Kd is 11.9 µM and 4.33 µM.
